According to patent US20160257710A1, “SELECTIVE INHIBITORS OF PROTEINASE 3” (INSERM (INSTITUT NATIONAL DE LA SANTÉ ET LA RECHERCHE …, priority 2013, published 2016):
Where no end group is shown, it is not given here. [ ]: non-standard residue; d: D form. AlaP = not defined here

What was measured:
Proteinase 3 = target: T1, Proteinase 3 (Homo sapiens, UniProt P24158); assay: Protease inhibition assay, second order rate constant kobs/[I] (method of Tian and Tsou); format: biochemical
T1 sequence (P24158 28-248): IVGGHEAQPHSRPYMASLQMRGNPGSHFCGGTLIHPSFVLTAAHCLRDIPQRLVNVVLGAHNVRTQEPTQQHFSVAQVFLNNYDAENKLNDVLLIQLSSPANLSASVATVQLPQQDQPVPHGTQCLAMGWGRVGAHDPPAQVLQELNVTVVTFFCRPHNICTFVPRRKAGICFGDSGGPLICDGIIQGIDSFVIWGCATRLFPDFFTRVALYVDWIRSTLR
Experimental: The compounds of the invention are advantageously selective inhibitors of PR3. […] As described under the Examples below (see PR3 inhibition assay), and as is generally known, efficacy of particular inhibitors against a target protease, for example, recombinant human PR3, is determined by combining the target with a substrate (for example Suc-AanV-SBzI), both in the absence of the inhibitor and in the present of different concentrations of such inhibitor to be tested. Typically, the efficacy of irreversible inhibitors are measured in terms of the second order rate constant of inhibition value (11) or kobs/l. Preferred inhibitors of the invention have typically a kobs/I of more than 10 M^−1s^−1, preferably more than 100 M^−1s^−1, and more preferably of more than […].
The inactivation of proteases by substrate analog inhibitors in the presence of the substrate by competition for the enzyme-binding site, was measured by the method of Tian and Tsou (17). In this system, product formation in the presence of an irreversible inhibitor approaches an asymptote, as described by
log([P∞]−[P])=log [P∞]−0.43A[Y]t
where [P∞] is the concentration of product formed at time approaching infinity, [P] is the concentration of product at time t, [Y] is the inhibitor concentration, and A is the apparent inhibition rate constant in the presence of the substrate. A is given by
where k+0 is the rate constant for association of the inhibitor with the enzyme, K^−1 is the inverted Michaelis constant, and [S] the substrate concentration. The apparent inhibition rate constant A is the slope of a plot of log([P∞]−[P]) against t, to give the second-order rate constant of inhibition k+0

PR3 = target: T2, PR3 (Homo sapiens, UniProt P24158); assay: Inhibition of protease activity in crude lung secretions of patients (IPF, cystic fibrosis); format: biochemical; details: 30 min incubation, IPF and CF samples
T2 construct: in a lysate of purified human neutrophils; endogenous in cells; host or cells: purified human neutrophils (lysate)
T2 sequence (P24158 28-248): T1 sequence (P24158 28-248)
Experimental: Crude lung secretions of patients with chronic inflammatory disorders associating significant neutrophil recruitment (IPF, Cystic fibrosis) were used as biological material to assay the efficacy of phosphonate inhibitors. We first measured the rate of cleavage of the PR3 substrate in >3 IPF and >3 CF crude samples before and after incubation with compounds 2 and 4 (×μM final). All crude samples cleaved the PR3 substrate in the absence of inhibitor and the cleavage always occurred at the expected bond, i.e. the cleavage bond of PR3, as checked by HPLC. The PR3 concentration was in the 0.1-1 μM range in lung secretions, based on the rate of substrate hydrolysis. […] Further, the rate of PR3 inactivation in a crude biological sample […] that of purified PR3, which means that there is no adverse effect impairing the PR3 inhibition in lung secretions of patients with inflammatory disorders.

Proteinase 3 kobs/[I] (Proteinase 3): 154 ± 3 M⁻¹ s⁻¹ | kobs/I relative to that of compound 1 (Proteinase 3; competition between PR3 substrate and inhibitor): about 100 times | hydrolysis of PR3 substrate in crude lung secretions (PR3): total inhibition
Substance: Ac-Pro-Tyr-Asp-Ala^P(O—C6H4-4-Cl)2 (Ac-PYD[AlaP]; not fully specified (C-terminus); printed as Ac-Pro-Tyr-Asp-Ala^P(O—C6H4-4-Cl)2; reading uncertain; also: C-terminal Ala as phosphonate analogue (Ala^P)) [Compound 2]
